Data reported in patent US20240301067A1.

Assays:
[1] = target: Human PD-1 extracellular domain, mFc tag (human) (UniProt Q15116); assay: ELISA competition on coated hPro1.ECD.mFc; competitor hPro1L2.ECD.His; experiment 2
[2] = target: Cynomolgus PD-1 extracellular domain, hFc tag (cynomolgus) (UniProt B0LAJ3); assay: ELISA competition on coated cynoPro1.ECD.hFc; competitor cynoProL1.ECD.hFc.biotin 2.5 µg/mL; experiment 1
[3] = target: Human PD-1 on CHO-S cells (human) (UniProt Q15116); assay: FACS competition on CHO-S.hPro1.C6 cells; competitor hProL1.ECD.mFc 5 µg/mL
Human PD-1 on CHO-S cells (human), sequence (Q15116 25-288): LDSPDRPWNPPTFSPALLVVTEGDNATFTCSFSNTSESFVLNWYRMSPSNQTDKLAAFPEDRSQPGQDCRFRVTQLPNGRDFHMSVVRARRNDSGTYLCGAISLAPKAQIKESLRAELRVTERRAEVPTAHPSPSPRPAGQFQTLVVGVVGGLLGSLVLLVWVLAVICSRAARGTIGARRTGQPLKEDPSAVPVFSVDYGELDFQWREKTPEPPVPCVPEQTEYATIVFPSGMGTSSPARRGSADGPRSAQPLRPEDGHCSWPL

[4] = target: Cynomolgus PD-1 extracellular domain, hFc tag (cynomolgus) (UniProt B0LAJ3); assay: ELISA competition on coated cynoPro1.ECD.hFc; competitor cynoProL1.ECD.hFc.biotin 2.5 µg/mL; experiment 2
[5] = target: Human PD-1 on CHO-S cells (human) (UniProt Q15116); assay: FACS on CHO-S.hPro1.C6 cells
[6] = target: Cynomolgus monkey PD-1 on transiently transfected 293F cells (cynomolgus monkey); assay: FACS on cyno PD-1 transfected 293F cells, experiment 1
[7] = target: Cynomolgus monkey PD-1 on transiently transfected 293F cells (cynomolgus monkey); assay: FACS on cyno PD-1 transfected 293F cells, experiment 2
[8] = target: Human PD-1 extracellular domain, mFc tag (human) (UniProt Q15116); assay: ELISA competition on coated hPro1.ECD.mFc; competitor hPro1L2.ECD.His; experiment 1
[9] = target: Human PD-1 (soluble analyte in SPR, Table 11) (human) (UniProt Q15116); assay: SPR Biacore 8K; antibody captured on anti-human Fc chip, PD-1 injected; 1:1 fit
Human PD-1 (soluble analyte in SPR, Table 11) (human), sequence (Q15116 25-167 limits assumed): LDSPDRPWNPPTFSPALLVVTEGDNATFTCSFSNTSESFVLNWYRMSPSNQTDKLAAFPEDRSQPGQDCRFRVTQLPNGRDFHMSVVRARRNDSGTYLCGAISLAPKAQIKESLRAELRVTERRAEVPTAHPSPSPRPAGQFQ

[10] = target: Cynomolgus PD-1 (soluble analyte in SPR, Table 11) (cynomolgus) (UniProt B0LAJ3); assay: as above
Cynomolgus PD-1 (soluble analyte in SPR, Table 11) (cynomolgus), sequence (B0LAJ3 entry or part of it limits assumed): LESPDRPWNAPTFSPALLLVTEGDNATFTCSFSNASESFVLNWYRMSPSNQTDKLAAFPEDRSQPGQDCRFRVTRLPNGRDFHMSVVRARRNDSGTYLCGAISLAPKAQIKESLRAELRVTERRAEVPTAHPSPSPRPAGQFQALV

Cynomolgus PD-1 extracellular domain, hFc tag (cynomolgus), sequence (B0LAJ3 entry or part of it limits assumed): as above
Human PD-1 extracellular domain, mFc tag (human), sequence (Q15116 25-170): as the sequence (B0LAJ3 entry or part of it limits assumed) above, with E2D, A10P, L19V, A35T, R75Q, A144T counted along it

IC50 [1]: 0.534 nM | IC50 [2]: 0.47 nM | IC50 [3]: 0.544 nM | IC50 [4]: 0.585 nM | EC50 [5]: 0.409 to 0.749 nM | EC50 [6]: 0.55 nM | EC50 [7]: 1.98 nM | IC50 [8]: 0.95 nM | Kd [9]: 2.87 nM | koff [9]: 0.00116 s⁻¹ | kon [9]: 405000 M⁻¹ s⁻¹ | Kd [10]: 2.23 nM | koff [10]: 0.000672 s⁻¹ | kon [10]: 301000 M⁻¹ s⁻¹
Substance: Benchmark antibody 1 (Opdivo, Nivolumab)
